Patent US20190185532A1 (UNIVERSITY OF BIRMINGHAM, published 2019)

T1: MMRN2 (endogenous, HUVEC) (human, UniProt Q9H8L6 23-949)
T1 construct: Endogenous protein in HUVEC lysates (co-immunoprecipitation); also called multimerin-2
T1 sequence (looked up): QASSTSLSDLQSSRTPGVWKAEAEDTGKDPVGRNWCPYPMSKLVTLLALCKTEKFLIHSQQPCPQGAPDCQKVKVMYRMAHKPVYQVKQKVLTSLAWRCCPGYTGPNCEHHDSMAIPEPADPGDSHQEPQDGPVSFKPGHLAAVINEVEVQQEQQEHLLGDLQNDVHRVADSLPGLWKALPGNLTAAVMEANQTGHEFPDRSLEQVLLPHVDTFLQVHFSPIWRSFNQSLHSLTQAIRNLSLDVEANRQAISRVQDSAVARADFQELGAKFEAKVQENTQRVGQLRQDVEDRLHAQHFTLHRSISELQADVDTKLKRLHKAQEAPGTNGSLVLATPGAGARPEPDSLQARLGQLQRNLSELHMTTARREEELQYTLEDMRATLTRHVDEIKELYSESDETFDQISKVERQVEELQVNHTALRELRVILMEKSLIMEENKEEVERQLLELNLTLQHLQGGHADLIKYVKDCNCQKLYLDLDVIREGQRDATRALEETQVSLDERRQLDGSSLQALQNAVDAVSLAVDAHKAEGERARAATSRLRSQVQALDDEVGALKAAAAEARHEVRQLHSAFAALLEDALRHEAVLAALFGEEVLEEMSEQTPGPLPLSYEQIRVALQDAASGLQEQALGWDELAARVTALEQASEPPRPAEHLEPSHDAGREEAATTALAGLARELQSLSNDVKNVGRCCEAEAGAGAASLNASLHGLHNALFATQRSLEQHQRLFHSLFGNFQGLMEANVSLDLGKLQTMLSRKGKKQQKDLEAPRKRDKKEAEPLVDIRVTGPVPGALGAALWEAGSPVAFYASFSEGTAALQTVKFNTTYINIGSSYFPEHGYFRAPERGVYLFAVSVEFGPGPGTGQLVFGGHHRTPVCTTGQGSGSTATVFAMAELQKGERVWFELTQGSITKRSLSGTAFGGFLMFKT


How the values were obtained:
[1] = target: T1, MMRN2 (endogenous, HUVEC); experiment: flow cytometry on HUVEC
Experimental: FIG. 3. A distinct region of MMRN2 binds CLEC14A in the C-type lectin domain. (A) CLEC14A-ECD-Fc was used to pull down MMRN2^FL from HEK293T transfected lysates. hCLEC14A-ECD-Fc was pre-incubated with either PBS, mouse control IgG, or C1-5. […] (B) Flow cytometry analysis of CLEC14A-ECD-Fc binding to HUVEC surface. CLEC14A-ECD-Fc was pre-incubated with same conditions as in pull downs. […] Mann-Whitney test *p<0.05 n=4 error bars represent standard error mean (SEM). (C) HEK293T transfected with CLEC14A domain deletions were lysed and far western blotted with MMRN2^FL under non-reduced conditions. Upon detection of the MMRN2^FL His tag, MMRN2 binding is observed in all mutants except those lacking the CTLD or sushi domains. CLEC14A blot was included to show expression of each mutant protein. (D) Flow cytometry analysis of HEK293T transfected with chimera 1 CLEC14A^{THBD(CTLD)} or chimera 2 CLEC14A^{THBD(sushi)}. […]
HUVEC or transfected HEK293T cells were detached from tissue culture plates using cell dissociation buffer or scraped and 5×10⁵ cells were stained with 20 ug/mL of antibody of interest or 20 μg/mL of recombinant protein. […] Samples were analysed on a FACSCalibur machine (BD Biosciences). […] Isotype control staining or human Fc alone was used as background fluorescence and this was subtracted from the geometric mean fluorescence intensity of each sample. […]

[2] = target: T2, thrombomodulin (human, C-terminal GFP tag, expressed in HEK293T) (human, UniProt P07204 19-575); experiment: flow cytometry on transfected HEK293T cells, streptavidin-PE
T2 construct: whole, on cells; On cells in flow cytometry; as non-reduced HEK293T lysate in far western blots; also called THBD; THBD wt; not shown: C-terminal green fluorescent protein (GFP) tag from vector pEGFP-N1
T2 sequence (P07204 19-575): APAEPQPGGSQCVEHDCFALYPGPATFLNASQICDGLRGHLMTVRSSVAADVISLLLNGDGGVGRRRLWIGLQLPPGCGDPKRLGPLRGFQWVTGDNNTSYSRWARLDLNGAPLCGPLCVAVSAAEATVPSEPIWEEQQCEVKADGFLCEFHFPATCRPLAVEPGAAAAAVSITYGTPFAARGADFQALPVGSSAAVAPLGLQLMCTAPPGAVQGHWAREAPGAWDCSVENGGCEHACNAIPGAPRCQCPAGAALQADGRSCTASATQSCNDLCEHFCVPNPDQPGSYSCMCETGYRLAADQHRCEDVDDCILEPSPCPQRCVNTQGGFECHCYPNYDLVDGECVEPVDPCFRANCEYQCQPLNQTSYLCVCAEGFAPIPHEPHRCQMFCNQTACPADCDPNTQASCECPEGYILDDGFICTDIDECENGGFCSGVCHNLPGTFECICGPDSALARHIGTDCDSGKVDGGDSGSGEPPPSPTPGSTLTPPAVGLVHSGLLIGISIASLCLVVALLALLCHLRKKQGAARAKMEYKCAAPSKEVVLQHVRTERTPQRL
Text: The minimal CLEC14A binding fragment is highlighted in black. (B,C) HEK293T were transfected with truncation mutants. Lysates were far western blotted under reduced conditions with CLEC14A extracellular domain fused to an Fc tag (CLEC14A-ECD-Fc) and western blotted by use of His tag antibodies. (B) The smallest binding fragment was identified as MMRN2⁴⁸⁷⁻⁸²⁰, MMRN2^FL fails to bind CLEC14A-ECD-Fc. (C) The smallest MMRN2 fragment binding CLEC14A is MMRN2⁵³⁰⁻⁶²⁴. (D) MMRN2⁴⁹⁵⁻⁶⁷⁴ and MMRN2⁴⁹⁵⁻⁶⁰³ bind to streptavidin under reducing conditions after biotinylation. (E) Flow cytometry histograms of HEK293T transfected with GFP tagged CTLD group 14 family members and stained with biotinylated MMRN2⁴⁹⁵⁻⁶⁷⁴ (grey line), confirming binding to CLEC14A and CD93 but not thrombomodulin. Streptavidin-PE was used as a control for background binding (grey shaded).
The human MMRN2⁴⁹⁵⁻⁶⁷⁴ fragment along with the non-CLEC14A binding fragment MMRN2⁴⁹⁵⁻⁶⁰³ was expressed in E. coil with a His tag for purification and a BirA tag for specific biotinylation (17). Biotinylated proteins could bind to streptavidin in western blots (FIG. 2D) and MMRN2⁴⁹⁵⁻⁶⁷⁴ could bind to cell surface expressed CLEC14A and CD93 but not thrombomodulin detected by flow cytometry. This confirmed the CLEC14A and CD93 interactions likely occur in the same region of MMRN2 (FIG. 2E).
HUVEC or transfected HEK293T cells were detached from tissue culture plates using cell dissociation buffer or scraped and 5×10⁵ cells were stained with 20 ug/mL of antibody of interest or 20 μg/mL of recombinant protein. In blocking experiments, hCLEC14A-ECD-Fc was incubated with 2× molar excess of antibody or recombinant protein on ice for 1 hour. Flow cytometry buffer (PBS with 0.2% (w/v) BSA and 0.02% (w/v) sodium azide) was used for all wash and incubation steps. Samples were analysed on a FACSCalibur machine (BD Biosciences). […] Isotype control staining or human Fc alone was used as background fluorescence and this was subtracted from the geometric mean fluorescence intensity of each sample.

binding result [1]	binding result [2]	Binder
binds		CLEC14A-ECD-Fc (human CLEC14A extracellular domain fused to an Fc tag) (Fc fusion, Expressed in HEK293T cells; also called hCLEC14A-ECD-Fc; C14A-Fc; not shown: human IgG Fc tag) EHPTADRAGCSASGACYSLHHATMKRQAAEEACILRGGALSTVRAGAELRAVLALLRAGPGPGGGSKDLLFWVALERRRSHCTLENEPLRGFSWLSSDPGGLESDTLQWVEEPQRSCTARRCAVLQATGGVEPAGWKEMRCHLRANGYLCKYQFEVLCPAPRPGAASNLSYRAPFQLHSAALDFSPPGTEVSALCRGQLPISVTCIADEIGARWDKLSGDVLCPCPGRYLRAGKCAELPNCLDDLGGFACECATGFELGKDGRSCVTSGEGQPTLGGTGVPTRRPPATATSPVPQRTWPIRVDEKLGETPLVPEQDNSVTSIPEIPRWGSQSTMSTLQMSLQAESKATITPSGSVISKFNSTTSSATPQAFDSSS
	no binding (tested: 20 µg/mL)	biotinylated MMRN2^495-674 (human, expressed in E. coli with a His tag and a BirA tag) (ligand, biotin on the BirA tag, Used for staining of transfected HEK293T cells in flow cytometry, detected with streptavidin-PE; not shown: BirA tag and His tag (vector pET23a)) QKLYLDLDVIREGQRDATRALEETQVSLDERRQLDGSSLQALQNAVDAVSLAVDAHKAEGERARAATSRLRSQVQALDDEVGALKAAAAEARHEVRQLHSAFAALLEDALRHEAVLAALFGEEVLEEMSEQTPGPLPLSYEQIRVALQDAASGLQEQALGWDELAARVTALEQASEPPRP
